The record followed here is patent US20030194411A1.

The target in assay [1] is MN-PND peptide … (HIV-1 MN strain). Kind of assay: MN-PND ELISA, serum 1:1000, day 0.
Assay [2] shares this target. Kind of assay: MN-PND ELISA, serum 1:2500, day 0. For orientation: An ELISA detects its analyte on a solid surface through an enzyme-linked reagent.
For assay [3] the target is unchanged. Nature of the assay: MN-PND ELISA, serum 1:20, day 0.
For assay [4] the target is unchanged. Kind of assay: MN-PND ELISA, serum 1:100, day 0.
For assay [5] the target is unchanged. Nature of the assay: MN-PND ELISA, serum 1:500, day 0.

For “guinea pig serum sample 0 (day 0, Example V) (antibody)”, the O.D. is 0.05 O.D in assay [1]; 0.04 O.D in assay [2]; 0.15 O.D in assay [3]; 0.07 O.D in assay [4]; 0.05 O.D in assay [5].
